Assays:
Assay in all cases: cell_activity
[1] = test system: FAD2_T01_Left_C11 + FAD2_T01_Right_C11 TALEN pair; conditions: yeast reporter cleavage
[2] = test system: FAD2_T03_Left_C40 + FAD2_T03_Right_C40 TALEN pair; conditions: yeast reporter cleavage
[3] = test system: FAD2_T03_Left_C11 + FAD2_T03_Right_C11 TALEN pair; conditions: yeast reporter cleavage
[4] = test system: FAD2_T02_Left_C11 + FAD2_T01_Right_C11 TALEN pair; conditions: yeast reporter cleavage
[5] = test system: FAD2_T04_Left_C40 + FAD2_T03_Right_C40 TALEN pair; conditions: yeast reporter cleavage
[6] = test system: FAD2_T01_Left_C40 + FAD2_T01_Right_C40 TALEN pair; conditions: yeast reporter cleavage
[7] = test system: FAD2_T02_Left_C40 + FAD2_T01_Right_C40 TALEN pair; conditions: yeast reporter cleavage
[8] = test system: FAD2_T04_Left_C11 + FAD2_T03_Right_C11 TALEN pair; conditions: yeast reporter cleavage
[9] = test system: FAD2_T01_Right_C11 TALEN monomer (synthetic (TAL effector-nuclease fusion)?); conditions: yeast reporter; value of pair with T01_Left_C11 on Target 1
[10] = test system: FAD2_T01_Right_C40 TALEN monomer (synthetic (TAL effector-nuclease fusion)?); conditions: yeast reporter; value of pair with T01_Left_C40 on Target 1
[11] = test system: FAD2_T03_Left_C11 TALEN monomer (synthetic (TAL effector-nuclease fusion)?); conditions: yeast reporter; value of pair with T03_Right_C11 on Target 3
[12] = test system: FAD2_T03_Left_C40 TALEN monomer (synthetic (TAL effector-nuclease fusion)?); conditions: yeast reporter; value of pair with T03_Right_C40 on Target 3
[13] = test system: FAD2_T04_Left_C11 TALEN monomer (synthetic (TAL effector-nuclease fusion)?); conditions: yeast reporter; value of pair with T03_Right_C11 on Target 4
[14] = test system: FAD2_T04_Left_C40 TALEN monomer (synthetic (TAL effector-nuclease fusion)?); conditions: yeast reporter; value of pair with T03_Right_C40 on Target 4
[15] = test system: FAD2_T03_Right_C40 TALEN monomer (synthetic (TAL effector-nuclease fusion)?); conditions: yeast reporter; value of pair with T03_Left_C40 on Target 3
[16] = test system: FAD2_T03_Right_C11 TALEN monomer (synthetic (TAL effector-nuclease fusion)?); conditions: yeast reporter; value of pair with T03_Left_C11 on Target 3
[17] = test system: FAD2_T01_Left_C11 TALEN monomer (synthetic (TAL effector-nuclease fusion)?); conditions: yeast reporter; value of pair with T01_Right_C11 on Target 1
[18] = test system: FAD2_T01_Left_C40 TALEN monomer (synthetic (TAL effector-nuclease fusion)?); conditions: yeast reporter; value of pair with T01_Right_C40 on Target 1
[19] = test system: FAD2_T02_Left_C40 TALEN monomer (synthetic (TAL effector-nuclease fusion)?); conditions: yeast reporter; value of pair with T01_Right_C40 on Target 2
[20] = test system: FAD2_T02_Left_C11 TALEN monomer (synthetic (TAL effector-nuclease fusion)?); conditions: yeast reporter; value of pair with T01_Right_C11 on Target 2
[21] = left site truncated in Target 1
[22] = left site truncated in Target 3

With “GCCACCACCTACTTCCACCTCCTTCCTCAACCCTTTTCCCTCATTGCATGGCCAATCT (double strand) [FAD2 Target 1]” the activity (relative to I-SceI) [1] was 0.73, the activity (relative to I-SceI) [2] was 0 and the activity (relative to I-SceI) [3] was 0. The activity (relative to I-SceI) [4, 21] was 0, the activity (relative to I-SceI) [5] was 0 and the activity (relative to I-SceI) [6] was 0.79. For the same sequence, the activity (relative to I-SceI) [7, 21] was 0 and the activity (relative to I-SceI) [8] was 0.
“ATTGCATGGCCAATCT (double strand) [FAD2_T01/T02 right half-site]” was tested, and the activity (relative to I-SceI) [9] was 0.73 and the activity (relative to I-SceI) [10] was 0.79.
In the case of “ATTTCTCATGGAAAATAAGCCATCGCCGCCATCACTCCAACACAGGTTCCCTTGACCGTGATGAAGTGTTTGTCCC (double strand) [FAD2 Target 4]”, the activity (relative to I-SceI) [1] is reported as 0, the activity (relative to I-SceI) [2] is reported as 0.51 and the activity (relative to I-SceI) [3] is reported as 0.53. The activity (relative to I-SceI) [4] was 0, the activity (relative to I-SceI) [5] was 0.52 and the activity (relative to I-SceI) [6] was 0. It also gave an activity (relative to I-SceI) [7] of 0 and an activity (relative to I-SceI) [8] of 0.54.
Sequence “CTCATGGAAAATAAGCCAT (double strand) [FAD2_T03 left half-site]” has an activity (relative to I-SceI) [11] of 0.65 and an activity (relative to I-SceI) [12] of 0.63.
“ACATTGCCACCACCTACTTCCACCTCCTTCCTCAACCCTTTTCCCTCATTGCATGGCCAATCT (double strand) [FAD2 Target 2]” showed an activity (relative to I-SceI) [1] of 0.87, an activity (relative to I-SceI) [2] of 0 and an activity (relative to I-SceI) [3] of 0. It also gave an activity (relative to I-SceI) [4] of 0.97, an activity (relative to I-SceI) [5] of 0 and an activity (relative to I-SceI) [6] of 0.73. The activity (relative to I-SceI) [7] was 0.96 and the activity (relative to I-SceI) [8] was 0.
“ATTTCTCATGGAAAATAAGCCAT (double strand) [FAD2_T04 left half-site]” showed an activity (relative to I-SceI) [13] of 0.54 and an activity (relative to I-SceI) [14] of 0.52.
In the case of “ACCGTGATGAAGTGTTTGTCCC (double strand) [FAD2_T03/T04 right half-site]”, the activity (relative to I-SceI) [15] is reported as 0.63 and the activity (relative to I-SceI) [16] is reported as 0.65.
Sequence “CTCATGGAAAATAAGCCATCGCCGCCATCACTCCAACACAGGTTCCCTTGACCGTGATGAAGTGTTTGTCCC (double strand) [FAD2 Target 3]” has an activity (relative to I-SceI) [1] of 0, an activity (relative to I-SceI) [2] of 0.63 and an activity (relative to I-SceI) [3] of 0.65. It also gave an activity (relative to I-SceI) [4] of 0, an activity (relative to I-SceI) [5, 22] of 0 and an activity (relative to I-SceI) [6] of 0. For the same sequence, the activity (relative to I-SceI) [7] was 0 and the activity (relative to I-SceI) [8, 22] was 0.
Sequence “GCCACCACCTACTTCCACCTCCT (double strand) [FAD2_T01 left half-site]” has an activity (relative to I-SceI) [17] of 0.73 and an activity (relative to I-SceI) [18] of 0.79.
With “ACATTGCCACCACCTACTTCCACCT (double strand) [FAD2_T02 left half-site]” the activity (relative to I-SceI) [19] was 0.96 and the activity (relative to I-SceI) [20] was 0.97.
